Data published in patent US20060287236A1 (BIO RAD LABORATORIES, published 2006).

Target: T1, transferrin receptor (TfR) (human, UniProt P02786 1-760)
T1 construct: whole, on cells; also called 100 and 200 kDa proteins
Test: immunoprecipitation of surface-biotinylated 293 cell proteins with HFE or FLAG antibodies
Protocol: Cell surface protein biotinylations. Cells (4×10⁶) were seeded into 100 mm dishes and grown overnight to 80% confluency. The plates were moved to 4° C. and gently washed four times with PBS. Suflo-NHS-LC Biotin (Pierce) was added in PBS to a final concentration of 500 g/ml and incubated on ice for 30 mins. The Biotin reagent was removed and the plates washed 4 times with PBS containing 50 mM glycine. Cells were lysed in 500 ml of 25 mM Tris-HCL, pH 7.5 150 mM NaCl plus 0.5% NP-40. […] Precipitated proteins were separated on 4-20% Tris-glycine polyacrylamide gels (Novex), electroblotted to PVDF membranes (Novex) and biotinylated proteins were visualized with 2 μg/ml of streptavidin-HRP (Pierce) followed by ECL detection reagents (Amersham).
Biotinylated proteins were detected with streptavidin-conjugated horseradish peroxidase (HRP).

T1 sequence (P02786 whole entry): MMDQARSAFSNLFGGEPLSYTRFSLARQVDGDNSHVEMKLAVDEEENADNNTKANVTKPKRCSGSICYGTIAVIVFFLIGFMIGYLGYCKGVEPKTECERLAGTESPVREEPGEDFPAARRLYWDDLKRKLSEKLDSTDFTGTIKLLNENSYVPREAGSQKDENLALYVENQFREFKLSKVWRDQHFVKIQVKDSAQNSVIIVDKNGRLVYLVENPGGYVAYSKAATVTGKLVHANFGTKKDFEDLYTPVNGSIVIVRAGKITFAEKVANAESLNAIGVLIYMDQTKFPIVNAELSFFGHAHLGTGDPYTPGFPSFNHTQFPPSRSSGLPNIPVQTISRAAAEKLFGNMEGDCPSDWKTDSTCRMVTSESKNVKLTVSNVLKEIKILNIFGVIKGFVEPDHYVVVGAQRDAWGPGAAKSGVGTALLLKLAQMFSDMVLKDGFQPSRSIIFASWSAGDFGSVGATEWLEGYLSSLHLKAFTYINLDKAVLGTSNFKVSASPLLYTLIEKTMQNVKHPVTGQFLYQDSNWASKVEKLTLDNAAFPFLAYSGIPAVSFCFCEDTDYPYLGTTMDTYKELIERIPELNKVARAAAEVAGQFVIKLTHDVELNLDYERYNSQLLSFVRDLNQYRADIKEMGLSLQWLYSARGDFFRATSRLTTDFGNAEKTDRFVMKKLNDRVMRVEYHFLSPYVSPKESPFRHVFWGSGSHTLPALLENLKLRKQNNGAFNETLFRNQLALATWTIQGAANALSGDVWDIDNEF

B1: C282Y HFE mutant over-expressed in 293 cells (other, UniProt Q30201 23-348, looked up)
MHC heavy: RLLRSHSLHYLFMGASEQDLGLSLFEALGYVDDQLFVFYDHESRRVEPRTPWVSSRISSQMWLQLSQSLKGWDHMFTVDFWTIMENHNHSKESHTLQVILGCEMQEDNSTEGYWKYGYDGQDHLEFCPDTLDWRAAEPRAWPTKLEWERHKIRARQNRAYLERDCPAQLQQLLELGRGVLDQQVPPLVKVTHHVTSSVTTLRCRALNYYPQNITMKWLKDKQPMDAKEFEPKDVLPNGDGTYQGWITLAVPPGEEQRYTYQVEHPGLDQPLIVIWEPSPSGTLVIGVISGIAVFVVILFIGILFIILRKRQGSRGAMGHYVLAERE
notes: also called C282Y mutant
  binding result: no binding
